Molecular target: T1, ARM domain of APC (residues 338-1010), untagged (Mus musculus, UniProt Q61315 338-1010)
T1 sequence (looked up): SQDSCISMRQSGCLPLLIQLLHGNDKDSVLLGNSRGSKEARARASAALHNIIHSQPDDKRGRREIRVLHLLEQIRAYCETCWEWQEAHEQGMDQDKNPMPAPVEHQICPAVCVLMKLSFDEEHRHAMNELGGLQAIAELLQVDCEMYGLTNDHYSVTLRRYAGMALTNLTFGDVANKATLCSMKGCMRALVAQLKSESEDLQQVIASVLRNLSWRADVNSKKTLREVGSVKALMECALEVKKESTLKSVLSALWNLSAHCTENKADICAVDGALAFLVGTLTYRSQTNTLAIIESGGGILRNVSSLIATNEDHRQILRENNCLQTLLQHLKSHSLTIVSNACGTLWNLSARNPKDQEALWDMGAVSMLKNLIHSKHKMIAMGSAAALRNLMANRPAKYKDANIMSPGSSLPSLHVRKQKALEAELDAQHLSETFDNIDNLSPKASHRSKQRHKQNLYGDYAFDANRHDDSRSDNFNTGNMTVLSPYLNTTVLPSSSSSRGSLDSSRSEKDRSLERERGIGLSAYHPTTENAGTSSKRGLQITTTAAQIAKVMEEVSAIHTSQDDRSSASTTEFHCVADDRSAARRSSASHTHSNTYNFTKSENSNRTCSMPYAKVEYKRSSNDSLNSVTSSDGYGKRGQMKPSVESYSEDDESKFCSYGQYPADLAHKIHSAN
Test: cryo-EM structure

B1: KIF3A C-terminal region (residues 481-701, ACT), N-terminal 6His tag (domain or fragment, Mus musculus, UniProt P28741 481-701, looked up)
chain: VIVGGVDLLAKAEEQEKLLEESNMELEERRRRAEQLRKELEEKEQERLDIEEKYTSLQEEAQGKTKKLKKVWTMLMAAKSEMADLQQEHQREIEGLLENIRQLSRELRLQMLIIDNFIPQDYQEMIENYVHWNEDIGEWQLKCVAYTGNNMRKQTPVPDKKERDPFEVDLSHVYLAYTEESLRQSLMKLERPRTSKGKARPKMGRRKRSAKPETVIDSLLQ
B1: binds.

— article doi:10.1101/2025.03.21.644525 (bioRxiv, 2025)
